Experimental data published in paper PMC8215292, “Functional impact of intramolecular cleavage and dissociation of adhesion G protein–coupled receptor GPR133 (ADGRD1) on canonical signaling” (The Journal of Biological Chemistry, 2021).

What was measured:
[1] = biological target: T1, GPR133 (ADGRD1) C-terminal fragment with C-terminal Twin-Strep-tag, cleaved from C-terminally … (human); test: pull-down; C-terminal Twin-Strep tag purification on Strep-Tactin from the Nuc/ER/Golgi subcellular fraction of HEK293T cells (1% DDM); Western blot, densitometry of NTF/CTF; settings: partners not purified
T1 construct: also called CTF; GPR133 CTF; source: HEK293T, transfected, in whole-cell lysate or subcellular fractions; not shown: Twin-Strep, C-terminal, kept
T1 chain: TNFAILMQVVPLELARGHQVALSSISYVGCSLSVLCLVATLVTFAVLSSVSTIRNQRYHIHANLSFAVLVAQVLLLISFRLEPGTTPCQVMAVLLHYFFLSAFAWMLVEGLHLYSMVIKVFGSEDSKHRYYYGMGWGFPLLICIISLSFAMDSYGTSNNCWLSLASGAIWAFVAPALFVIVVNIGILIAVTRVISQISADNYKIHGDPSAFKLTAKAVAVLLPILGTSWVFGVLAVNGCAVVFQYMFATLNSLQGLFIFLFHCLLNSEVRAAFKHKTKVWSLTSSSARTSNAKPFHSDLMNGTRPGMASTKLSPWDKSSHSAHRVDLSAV

[2] = biological target: T1, GPR133 (ADGRD1) C-terminal fragment …; test: pull-down; C-terminal Twin-Strep tag purification on Strep-Tactin from the plasma membrane subcellular fraction of HEK293T cells (1% DDM); Western blot, densitometry of NTF/CTF; settings: partners not purified

NTF/CTF ratio in the elution [1]: 1 | NTF/CTF ratio in the elution [2]: 0.17
B1: GPR133 (ADGRD1) N-terminal fragment, cleaved from C-terminally Twin-Strep-tagged WT GPR133 (domain or fragment, human)
chain: VYSRSQDHPGFQVLASASHYWPLENVDGIHELQDTTGDIVEGKVNKGIYLKEEKGVTLLYYGRYNSSCISKPEQCGPEGVTFSFFWKTQGEQSRPIPSAYGGQVISNGFKVCSSGGRGSVELYTRDNSMTWEASFSPPGPYWTHVLFTWKSKEGLKVYVNGTLSTSDPSGKVSRDYGESNVNLVIGSEQDQAKCYENGAFDEFIIWERALTPDEIAMYFTAAIGKHALLSSTLPSLFMTSTASPVMPTDAYHPIITNLTEERKTFQSPGVILSYLQNVSLSLPSKSLSEQTALNLTKTFLKAVGEILLLPGWIALSEDSAVVLSLIDTIDTVMGHVSSNLHGSTPQVTVEGSSAMAEFSVAKILPKTVNSSHYRFPAHGQSFIQIPHEAFHRHAWSTVVGLLYHSMHYYLNNIWPAHTKIAEAMHHQDCLLFATSHLISLEVSPPPTLSQNLSGSPLITVHLKHRLTRKQHSEATNSSNRVFVYCAFLDFSSGEGVWSNHGCALTRGNLTYSVCRCTHL
modifications: glycosylated (immaturely and maturely glycosylated forms; nine N-linked glycosylation sites predicted within the NTF)
notes: signal peptide in the construct; codon-optimized cDNA of WT human GPR133 from Axxam; also called NTF; GPR133 NTF; source: HEK293T, transfected, in whole-cell lysate or subcellular fractions
